Measured values as given in article PMC6391106 (2019).
Each block holds one binder with its values, some of them ahead of it.

Legend:
[1] = molecular target: T1, recombinant human WT C3(H2O) (human, UniProt P01024 23-1663); test: SPR
[2] = molecular target: T1, recombinant human WT C3(H2O); test: SPR; methylamine-treated C3
[3] = molecular target: recombinant human C3(H2O) Asn1115 (human, UniProt P01024 23-1663, D1115N); test: SPR; methylamine-treated C3
[4] = molecular target: murine C3b Asn1115 (mouse, UniProt P01027 749-1663; P01027 749-1663, D1115N); test: SPR
Sequence of murine C3b Asn1115 (P01027 25-666, chain 1 of 2): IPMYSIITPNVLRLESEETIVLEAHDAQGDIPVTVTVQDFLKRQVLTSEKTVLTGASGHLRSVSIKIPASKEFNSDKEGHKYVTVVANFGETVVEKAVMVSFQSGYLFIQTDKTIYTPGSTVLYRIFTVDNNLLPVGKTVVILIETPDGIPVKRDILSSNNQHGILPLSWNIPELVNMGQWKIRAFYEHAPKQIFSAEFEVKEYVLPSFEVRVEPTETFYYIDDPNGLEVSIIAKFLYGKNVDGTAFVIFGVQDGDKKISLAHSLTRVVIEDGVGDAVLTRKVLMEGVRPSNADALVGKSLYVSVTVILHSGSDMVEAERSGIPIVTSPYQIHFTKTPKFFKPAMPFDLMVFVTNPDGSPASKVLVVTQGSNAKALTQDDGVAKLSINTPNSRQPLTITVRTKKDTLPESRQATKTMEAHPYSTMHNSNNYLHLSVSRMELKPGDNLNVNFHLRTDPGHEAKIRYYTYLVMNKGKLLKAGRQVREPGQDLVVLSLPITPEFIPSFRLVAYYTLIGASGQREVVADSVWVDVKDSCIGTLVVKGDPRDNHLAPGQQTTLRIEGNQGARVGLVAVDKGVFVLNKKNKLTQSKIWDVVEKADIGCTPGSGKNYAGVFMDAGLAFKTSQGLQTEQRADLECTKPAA
Sequence of murine C3b Asn1115 (P01027 749-1663 D1115N, chain 2 of 2): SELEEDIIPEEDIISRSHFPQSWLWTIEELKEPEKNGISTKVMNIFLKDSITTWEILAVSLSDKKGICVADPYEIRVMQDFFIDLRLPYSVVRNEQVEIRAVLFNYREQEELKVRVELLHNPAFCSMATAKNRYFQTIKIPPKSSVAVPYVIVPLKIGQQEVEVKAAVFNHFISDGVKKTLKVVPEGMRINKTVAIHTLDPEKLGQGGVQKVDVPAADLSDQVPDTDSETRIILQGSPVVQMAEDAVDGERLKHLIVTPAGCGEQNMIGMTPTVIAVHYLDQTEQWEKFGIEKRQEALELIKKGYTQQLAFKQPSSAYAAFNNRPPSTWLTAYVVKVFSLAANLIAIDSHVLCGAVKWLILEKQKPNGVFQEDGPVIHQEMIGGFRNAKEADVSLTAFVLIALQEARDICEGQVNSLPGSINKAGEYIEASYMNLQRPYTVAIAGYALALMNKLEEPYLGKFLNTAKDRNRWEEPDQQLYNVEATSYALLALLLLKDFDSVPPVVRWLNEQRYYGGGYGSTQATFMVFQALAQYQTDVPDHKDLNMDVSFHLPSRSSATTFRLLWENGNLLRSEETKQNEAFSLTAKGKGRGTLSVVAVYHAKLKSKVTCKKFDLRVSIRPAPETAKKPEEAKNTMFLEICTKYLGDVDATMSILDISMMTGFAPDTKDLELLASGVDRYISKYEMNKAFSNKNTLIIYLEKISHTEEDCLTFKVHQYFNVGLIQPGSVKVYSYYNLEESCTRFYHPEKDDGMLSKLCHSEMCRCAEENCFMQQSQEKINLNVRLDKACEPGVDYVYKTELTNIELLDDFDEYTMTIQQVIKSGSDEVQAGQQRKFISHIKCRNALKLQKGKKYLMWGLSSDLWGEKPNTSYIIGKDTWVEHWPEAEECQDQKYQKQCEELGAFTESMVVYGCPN

T1 sequence (P01024 23-1663): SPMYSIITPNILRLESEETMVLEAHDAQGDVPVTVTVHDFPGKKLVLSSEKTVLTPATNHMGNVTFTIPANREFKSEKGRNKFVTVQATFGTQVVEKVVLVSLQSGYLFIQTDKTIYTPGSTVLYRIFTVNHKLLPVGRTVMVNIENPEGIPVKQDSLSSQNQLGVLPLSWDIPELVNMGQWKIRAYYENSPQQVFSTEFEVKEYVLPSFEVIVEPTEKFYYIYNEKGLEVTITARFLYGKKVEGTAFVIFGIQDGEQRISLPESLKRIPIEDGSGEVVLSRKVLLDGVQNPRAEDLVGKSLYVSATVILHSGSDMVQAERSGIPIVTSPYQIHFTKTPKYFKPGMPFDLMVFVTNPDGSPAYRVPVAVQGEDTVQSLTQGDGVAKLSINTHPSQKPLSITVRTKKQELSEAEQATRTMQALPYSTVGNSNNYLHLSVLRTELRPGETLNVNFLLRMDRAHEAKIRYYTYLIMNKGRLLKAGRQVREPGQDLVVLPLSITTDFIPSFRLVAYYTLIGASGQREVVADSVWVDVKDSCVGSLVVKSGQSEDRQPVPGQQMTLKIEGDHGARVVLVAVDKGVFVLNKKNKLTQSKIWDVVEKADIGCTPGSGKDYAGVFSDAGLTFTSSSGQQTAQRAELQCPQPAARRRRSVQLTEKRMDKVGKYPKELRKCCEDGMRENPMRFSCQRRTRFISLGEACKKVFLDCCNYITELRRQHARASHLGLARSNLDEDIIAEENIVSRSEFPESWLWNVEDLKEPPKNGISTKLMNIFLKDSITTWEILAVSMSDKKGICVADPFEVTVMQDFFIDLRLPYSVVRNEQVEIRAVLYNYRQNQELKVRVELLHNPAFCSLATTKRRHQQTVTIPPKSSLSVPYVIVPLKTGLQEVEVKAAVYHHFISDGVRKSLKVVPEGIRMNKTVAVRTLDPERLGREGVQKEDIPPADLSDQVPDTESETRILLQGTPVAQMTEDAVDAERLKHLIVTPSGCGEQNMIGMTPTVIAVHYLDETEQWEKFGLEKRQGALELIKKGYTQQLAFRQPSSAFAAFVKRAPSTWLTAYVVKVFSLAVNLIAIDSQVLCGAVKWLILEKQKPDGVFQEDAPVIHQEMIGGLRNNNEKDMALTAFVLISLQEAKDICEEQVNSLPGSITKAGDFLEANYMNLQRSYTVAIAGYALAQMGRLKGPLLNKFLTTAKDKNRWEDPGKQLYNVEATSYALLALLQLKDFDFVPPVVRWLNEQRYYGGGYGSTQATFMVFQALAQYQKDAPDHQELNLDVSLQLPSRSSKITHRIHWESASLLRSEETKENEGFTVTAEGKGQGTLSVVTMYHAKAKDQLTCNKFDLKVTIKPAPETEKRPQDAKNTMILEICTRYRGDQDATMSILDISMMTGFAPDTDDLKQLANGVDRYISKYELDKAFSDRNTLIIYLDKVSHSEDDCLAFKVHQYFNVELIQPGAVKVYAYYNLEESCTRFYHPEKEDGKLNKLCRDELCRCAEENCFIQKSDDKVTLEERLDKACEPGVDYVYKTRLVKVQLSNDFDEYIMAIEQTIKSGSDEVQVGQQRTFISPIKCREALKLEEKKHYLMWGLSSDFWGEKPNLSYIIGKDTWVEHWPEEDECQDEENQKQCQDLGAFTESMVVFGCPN
Sequence of recombinant human C3(H2O) Asn1115 (P01024 23-1663 D1115N): as the sequence (P01024 23-1663) above, with D1093N counted along it

- Kd [1]: 2.1 µM
B1: human membrane cofactor protein (MCP) (natural protein)
chain: CEEPPTFEAMELIGKPKPYYEIGERVDYKCKKGYFYIPPLATHTICDRNHTWLPVSDDACYRETCPYIRDPLNGQAVPANGTYEFGYQMHFICNEGYYLIGEEILYCELKGSVAIWSGKPPICEKVLCTPPPKIKNGKHTFSEVEVFEYLDAVTYSCDPAPGPDPFSLIGESTIYCGDNSVWSRAAPECKVVKCRFPVVENGKQISGFGKKFYYKATVMFECDKGFYLDGSDTIVCDSNSTWDPPVPKCLKVLPPSSTKPPALSHSVSTSSTTKSPASSASGPRPTYKPPVSNYPGYPKPEEGILDSLDVWVIAVIVIAIVVGVAVICVVPYRYLQRRKKKGTYLTDETHREVKFTSL

- Kd [2]: 3.79 µM
- Kd [3]: 6.37 µM
B2: human FH (natural protein)
chain: EDCNELPPRRNTEILTGSWSDQTYPEGTQAIYKCRPGYRSLGNVIMVCRKGEWVALNPLRKCQKRPCGHPGDTPFGTFTLTGGNVFEYGVKAVYTCNEGYQLLGEINYRECDTDGWTNDIPICEVVKCLPVTAPENGKIVSSAMEPDREYHFGQAVRFVCNSGYKIEGDEEMHCSDDGFWSKEKPKCVEISCKSPDVINGSPISQKIIYKENERFQYKCNMGYEYSERGDAVCTESGWRPLPSCEEKSCDNPYIPNGDYSPLRIKHRTGDEITYQCRNGFYPATRGNTAKCTSTGWIPAPRCTLKPCDYPDIKHGGLYHENMRRPYFPVAVGKYYSYYCDEHFETPSGSYWDHIHCTQDGWSPAVPCLRKCYFPYLENGYNQNYGRKFVQGKSIDVACHPGYALPKAQTTVTCMENGWSPTPRCIRVKTCSKSSIDIENGFISESQYTYALKEKAKYQCKLGYVTADGETSGSITCGKDGWSAQPTCIKSCDIPVFMNARTKNDFTWFKLNDTLDYECHDGYESNTGSTTGSIVCGYNGWSDLPICYERECELPKIDVHLVPDRKKDQYKVGEVLKFSCKPGFTIVGPNSVQCYHFGLSPDLPICKEQVQSCGPPPELLNGNVKEKTKEEYGHSEVVEYYCNPRFLMKGPNKIQCVDGEWTTLPVCIVEESTCGDIPELEHGWAQLSSPPYYYGDSVEFNCSESFTMIGHRSITCIHGVWTQLPQCVAIDKLKKCKSSNLIILEEHLKNKKEFDHNSNIRYRCRGKEGWIHTVCINGRWDPEVNCSMAQIQLCPPPPQIPNSHNMTTTLNYRDGEKVSVLCQENYLIQEGEEITCKDGRWQSIPLCVEKIPCSQPPQIEHGTINSSRSSQESYAHGTKLSYTCEGGFRISEENETTCYMGKWSSPPQCEGLPCKSPPEISHGVVAHMSDSYQYGEEVTYKCFEGFGIDGPAIAKCLGEKWSHPPSCIKTDCLSLPSFENAIPMGEKKDVYKAGEQVTYTCATYYKMDGASNVTCINSRWTGRPTCRDTSCVNPPTVQNAYIVSRQMSKYPSGERVRYQCRSPYEMFGDEEVMCLNGNWTEPPQCKDSTGKCGPPPPIDNGDITSFPLSVYAPASSVEYQCQNLYQLEGNKRITCRNGQWSEPPKCLHPCVISREIMENYNIALRWTAKQKLYSRTGESVEFVCKRGYRLSSRSHTLRTTCWDGKLEYPTCAKR

- Kd [4]: > 17.4 µM
B3: recombinant human FH SCRs 19–20 (domain or fragment)
chain: GKCGPPPPIDNGDITSFPLSVYAPASSVEYQCQNLYQLEGNKRITCRNGQWSEPPKCLHPCVISREIMENYNIALRWTAKQKLYSRTGESVEFVCKRGYRLSSRSHTLRTTCWDGKLEYPTCAK
modifications: C3b made from plasma-purified C3 by factor B/factor D cleavage (C3a released); beta and alpha' chains disulfide-linked; thioester (Cys1010-Gln1013) hydrolysed; N-glycosylated; amine-coupled to CM5 chip
